Data on one substance can be found in article PMC11257539.

For this assay, the target named is full-length human VARP with a C-terminal 10xHis tag (human) (UniProt Q96NW4). The assay is described as follows: BLI.
Sequence of full-length human VARP with a C-terminal 10xHis tag (human) (Q96NW4 whole entry): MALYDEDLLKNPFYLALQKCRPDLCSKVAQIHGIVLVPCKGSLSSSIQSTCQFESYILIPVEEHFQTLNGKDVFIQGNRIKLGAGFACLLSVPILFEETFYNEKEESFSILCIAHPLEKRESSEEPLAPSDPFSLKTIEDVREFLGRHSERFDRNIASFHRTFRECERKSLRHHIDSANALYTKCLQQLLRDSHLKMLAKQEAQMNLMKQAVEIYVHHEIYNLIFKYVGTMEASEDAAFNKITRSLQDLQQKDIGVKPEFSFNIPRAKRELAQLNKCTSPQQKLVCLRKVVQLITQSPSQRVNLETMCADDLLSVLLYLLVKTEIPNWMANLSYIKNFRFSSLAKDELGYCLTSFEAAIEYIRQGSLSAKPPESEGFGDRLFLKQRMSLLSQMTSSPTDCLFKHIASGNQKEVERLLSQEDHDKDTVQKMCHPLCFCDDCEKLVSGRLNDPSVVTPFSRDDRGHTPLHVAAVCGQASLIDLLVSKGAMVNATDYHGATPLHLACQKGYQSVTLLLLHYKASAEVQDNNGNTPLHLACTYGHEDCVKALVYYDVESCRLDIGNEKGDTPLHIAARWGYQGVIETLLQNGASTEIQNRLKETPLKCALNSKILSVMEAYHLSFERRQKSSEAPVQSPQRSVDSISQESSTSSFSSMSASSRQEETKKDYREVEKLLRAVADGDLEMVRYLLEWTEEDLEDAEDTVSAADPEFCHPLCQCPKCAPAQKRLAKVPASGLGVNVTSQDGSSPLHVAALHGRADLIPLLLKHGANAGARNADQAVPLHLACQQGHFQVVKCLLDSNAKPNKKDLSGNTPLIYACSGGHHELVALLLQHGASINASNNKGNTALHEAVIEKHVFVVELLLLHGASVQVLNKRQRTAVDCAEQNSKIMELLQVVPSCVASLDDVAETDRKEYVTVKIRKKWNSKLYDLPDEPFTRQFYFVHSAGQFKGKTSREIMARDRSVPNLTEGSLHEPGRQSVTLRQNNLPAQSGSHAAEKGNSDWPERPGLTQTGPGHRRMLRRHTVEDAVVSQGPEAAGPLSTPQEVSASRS

Regarding “Retromer heterotrimer (VPS26/VPS35/VPS29 subunits) (from UniProt O75436;Q96QK1;Q9UBQ0) (complex)”, the ka1 was found to be 5040 M⁻¹ s⁻¹, the ka2 amounted to 0.0535 M⁻¹ s⁻¹, the kdis1 is 0.000363 s⁻¹ and the kdis2 turned out to be 0.00891 s⁻¹.
